molecular target: L. monocytogenes AgrC (Listeria monocytogenes (EGD-e)); experiment: cell-based or functional assay

Question: Which results are given for L. grandensis tr AIP (peptide)?
Answer: Max Activation (agr-GFP reporter, ΔagrD strain): 10.1%; Max Inhibition (agr-GFP reporter, wild-type strain): 0%

Question: With L. weihenstephanensis AIP (peptide) as the substance, how does the Max Activation (agr-GFP reporter, ΔagrD strain) read?
Answer: 11.2%

Question: And the Max Inhibition (agr-GFP reporter, wild-type strain)?
Answer: 0%

Question: Which Max Activation (agr-GFP reporter, ΔagrD strain) does the source give for L. kieliensis AIP (peptide) here?
Answer: 10.4%

Question: What about the Max Inhibition (agr-GFP reporter, wild-type strain) of the same substance?
Answer: 0%

Question: What does the source list for Lm AIP F3S (peptide)?
Answer: Max Activation (agr-GFP reporter, ΔagrD strain): 16.1%; Max Inhibition (agr-GFP reporter, wild-type strain): 16.3%

Question: Which results are given for AIP C2dC (peptide)?
Answer: EC50 (agr-GFP reporter, ΔagrD strain): 106 nM; IC50 (agr-GFP reporter, wild-type strain): 3970 nM; Max Activation Observed (agr-GFP reporter, ΔagrD strain): 41%; Max Inhibition Observed (agr-GFP reporter, wild-type strain): 48.4%

Question: L. grayi AIP (peptide) was tested. Which Max Activation (agr-GFP reporter, ΔagrD strain) did it give?
Answer: 10.7%

Question: And the Max Inhibition (agr-GFP reporter, wild-type strain)?
Answer: 0.42%

Question: How did the EC50 (agr-GFP reporter, ΔagrD strain) turn out when “L. monocytogenes AIP, A-(C-F-M-F-V) (peptide)” was run?
Answer: 29.6 nM

Question: And the Max Activation (agr-GFP reporter, ΔagrD strain)?
Answer: 114%

Question: What about the Max Inhibition (agr-GFP reporter, wild-type strain) of the same substance?
Answer: 2.66%

Question: Which EC50 (agr-GFP reporter, ΔagrD strain) does the source give for AIP V6dV (peptide) here?
Answer: 883 nM

Question: What about the Max Activation Observed (agr-GFP reporter, ΔagrD strain) of the same substance?
Answer: 72.9%

Question: Which results are given for L. newyorkensis AIP (peptide)?
Answer: Max Activation (agr-GFP reporter, ΔagrD strain): 23.6%; Max Inhibition (agr-GFP reporter, wild-type strain): 0.96%

Question: With AIP V6A (peptide) as the substance, how does the EC50 (agr-GFP reporter, ΔagrD strain) read?
Answer: 241 nM

Question: What about the Max Activation (agr-GFP reporter, ΔagrD strain) of the same substance?
Answer: 69%

Question: What about the Max Activation Observed (agr-GFP reporter, ΔagrD strain) of the same substance?
Answer: 69%

Question: And the Max Inhibition (agr-GFP reporter, wild-type strain)?
Answer: 15%

Question: And the Max Inhibition Observed (agr-GFP reporter, wild-type strain)?
Answer: 15%

Question: For AIP M4dM (peptide), which EC50 (agr-GFP reporter, ΔagrD strain) is on record?
Answer: 10.2 nM

Question: What about the Max Activation Observed (agr-GFP reporter, ΔagrD strain) of the same substance?
Answer: 111%

Question: And the Max Inhibition Observed (agr-GFP reporter, wild-type strain)?
Answer: 3.99%

Question: Which Max Activation Observed (agr-GFP reporter, ΔagrD strain) does the source give for AIP F3A (peptide) here?
Answer: 9.72%

Question: And the Max Inhibition Observed (agr-GFP reporter, wild-type strain)?
Answer: 3.65%

Question: With AIP A1dA (peptide) as the substance, how does the EC50 (agr-GFP reporter, ΔagrD strain) read?
Answer: 96.9 nM

Question: And the Max Activation Observed (agr-GFP reporter, ΔagrD strain)?
Answer: 58.8%

Question: What about the Max Inhibition Observed (agr-GFP reporter, wild-type strain) of the same substance?
Answer: 15.2%

Question: How did the Max Activation Observed (agr-GFP reporter, ΔagrD strain) turn out when AIP F5A (peptide) was run?
Answer: 6.37%

Question: What does the source list for AIP F5dF (peptide)?
Answer: EC50 (agr-GFP reporter, ΔagrD strain): 2180 nM; Max Activation Observed (agr-GFP reporter, ΔagrD strain): 72.3%; Max Inhibition Observed (agr-GFP reporter, wild-type strain): 2.71%

Question: With AIP F3dF (peptide) as the substance, how does the Max Activation Observed (agr-GFP reporter, ΔagrD strain) read?
Answer: 6.63%

Question: What about the Max Inhibition Observed (agr-GFP reporter, wild-type strain) of the same substance?
Answer: 14.7%

Question: What does the source list for AIP M4A (peptide)?
Answer: EC50 (agr-GFP reporter, ΔagrD strain): 1980 nM; Max Activation Observed (agr-GFP reporter, ΔagrD strain): 53.5%; Max Inhibition Observed (agr-GFP reporter, wild-type strain): 7.85%

molecular target: L. monocytogenes AgrC (Listeria monocytogenes (EGD-e)); experiment: cell-based or functional assay; remark: another data set of the same source

Question: AIP C2Dap (peptide) was tested. Which EC50 (agr-GFP reporter, ΔagrD strain) did it give?
Answer: 342 nM

Question: And the Max Activation Observed (agr-GFP reporter, ΔagrD strain)?
Answer: 92.9%

Question: What about the Max Inhibition Observed (agr-GFP reporter, wild-type strain) of the same substance?
Answer: 5.32%

Question: What does the source list for AIP F3L (peptide)?
Answer: EC50 (agr-GFP reporter, ΔagrD strain): 693 nM; IC50 (agr-GFP reporter, wild-type strain): 3600 nM; Max Activation Observed (agr-GFP reporter, ΔagrD strain): 37.6%; Max Inhibition Observed (agr-GFP reporter, wild-type strain): 33.4%

Question: Which results are given for AIP A1P (peptide)?
Answer: EC50 (agr-GFP reporter, ΔagrD strain): 29 nM; IC50 (agr-GFP reporter, wild-type strain): 611 nM; Max Activation Observed (agr-GFP reporter, ΔagrD strain): 76.8%; Max Inhibition Observed (agr-GFP reporter, wild-type strain): 23.7%

Question: Which EC50 (agr-GFP reporter, ΔagrD strain) does the source give for AIP M4dA (peptide) here?
Answer: 455 nM

Question: What about the Max Activation Observed (agr-GFP reporter, ΔagrD strain) of the same substance?
Answer: 82%

Question: And the Max Inhibition Observed (agr-GFP reporter, wild-type strain)?
Answer: 9.54%

Question: Which results are given for AIP A1V (peptide)?
Answer: EC50 (agr-GFP reporter, ΔagrD strain): 7.67 nM; Max Activation Observed (agr-GFP reporter, ΔagrD strain): 109%; Max Inhibition Observed (agr-GFP reporter, wild-type strain): 1.63%

Question: What does the source list for AIP F5H (peptide)?
Answer: Max Activation Observed (agr-GFP reporter, ΔagrD strain): 7.13%; Max Inhibition Observed (agr-GFP reporter, wild-type strain): 2.19%

Question: With “L. monocytogenes AIP, A-(C-F-M-F-V) (peptide)” as the substance, how does the EC50 (agr-GFP reporter, ΔagrD strain) read?
Answer: 29.7 nM

Question: And the Max Activation Observed (agr-GFP reporter, ΔagrD strain)?
Answer: 114%

Question: Which results are given for AIP A1T (peptide)?
Answer: EC50 (agr-GFP reporter, ΔagrD strain): 35.2 nM; IC50 (agr-GFP reporter, wild-type strain): 420 nM; Max Activation Observed (agr-GFP reporter, ΔagrD strain): 88.1%; Max Inhibition Observed (agr-GFP reporter, wild-type strain): 11.7%

Question: For AIP A1K/C2dC/M4dM (peptide), which IC50 (agr-GFP reporter, wild-type strain) is on record?
Answer: 1770 nM

Question: What about the Max Activation Observed (agr-GFP reporter, ΔagrD strain) of the same substance?
Answer: 8.1%

Question: And the Max Inhibition Observed (agr-GFP reporter, wild-type strain)?
Answer: 88.6%

Question: For AIP F5L (peptide), which EC50 (agr-GFP reporter, ΔagrD strain) is on record?
Answer: 2060 nM

Question: What about the Max Activation Observed (agr-GFP reporter, ΔagrD strain) of the same substance?
Answer: 64.8%

Question: And the Max Inhibition Observed (agr-GFP reporter, wild-type strain)?
Answer: 8.97%

Question: AIP F5Y (peptide) was tested. Which EC50 (agr-GFP reporter, ΔagrD strain) did it give?
Answer: 5620 nM

Question: What about the Max Activation Observed (agr-GFP reporter, ΔagrD strain) of the same substance?
Answer: 44.4%

Question: And the Max Inhibition Observed (agr-GFP reporter, wild-type strain)?
Answer: 6.61%

Question: Which Max Activation Observed (agr-GFP reporter, ΔagrD strain) does the source give for AIP C2dDap (peptide) here?
Answer: 14.3%

Question: What about the Max Inhibition Observed (agr-GFP reporter, wild-type strain) of the same substance?
Answer: 19.3%

Question: With AIP C2dC/M4dM (peptide) as the substance, how does the EC50 (agr-GFP reporter, ΔagrD strain) read?
Answer: 24.1 nM

Question: What about the IC50 (agr-GFP reporter, wild-type strain) of the same substance?
Answer: 242 nM

Question: What about the Max Activation Observed (agr-GFP reporter, ΔagrD strain) of the same substance?
Answer: 35.7%

Question: And the Max Inhibition Observed (agr-GFP reporter, wild-type strain)?
Answer: 64.8%

Question: Which EC50 (agr-GFP reporter, ΔagrD strain) does the source give for AIP F5W (peptide) here?
Answer: 1130 nM

Question: What about the Max Activation Observed (agr-GFP reporter, ΔagrD strain) of the same substance?
Answer: 85.8%

Question: And the Max Inhibition Observed (agr-GFP reporter, wild-type strain)?
Answer: 8.43%

Question: What does the source list for AIP F3W (peptide)?
Answer: EC50 (agr-GFP reporter, ΔagrD strain): 414 nM; IC50 (agr-GFP reporter, wild-type strain): 2180 nM; Max Activation Observed (agr-GFP reporter, ΔagrD strain): 60.6%; Max Inhibition Observed (agr-GFP reporter, wild-type strain): 27.1%

Question: Which results are given for AIP F3H (peptide)?
Answer: Max Activation Observed (agr-GFP reporter, ΔagrD strain): 12.4%; Max Inhibition Observed (agr-GFP reporter, wild-type strain): 24.9%

Question: For AIP A1K/M4dM (peptide), which EC50 (agr-GFP reporter, ΔagrD strain) is on record?
Answer: 4.18 nM

Question: What about the Max Activation Observed (agr-GFP reporter, ΔagrD strain) of the same substance?
Answer: 74.1%

Question: And the Max Inhibition Observed (agr-GFP reporter, wild-type strain)?
Answer: 20.2%

Question: How did the EC50 (agr-GFP reporter, ΔagrD strain) turn out when AIP F3Y (peptide) was run?
Answer: 518 nM

Question: What about the IC50 (agr-GFP reporter, wild-type strain) of the same substance?
Answer: 3460 nM

Question: What about the Max Activation Observed (agr-GFP reporter, ΔagrD strain) of the same substance?
Answer: 47.4%

Question: And the Max Inhibition Observed (agr-GFP reporter, wild-type strain)?
Answer: 33.4%

— patent US12116424
